Earlier results as cited in patent US8232251B2, “Compounds for delivery of therapeutic and imaging moieties to nerve cells” (Manzanita Pharmaceuticals, Inc., priority 1998, dated 2012).

Target: T1, p75 (Homo sapiens, UniProt P08138)
T1 sequence (P08138 29-427): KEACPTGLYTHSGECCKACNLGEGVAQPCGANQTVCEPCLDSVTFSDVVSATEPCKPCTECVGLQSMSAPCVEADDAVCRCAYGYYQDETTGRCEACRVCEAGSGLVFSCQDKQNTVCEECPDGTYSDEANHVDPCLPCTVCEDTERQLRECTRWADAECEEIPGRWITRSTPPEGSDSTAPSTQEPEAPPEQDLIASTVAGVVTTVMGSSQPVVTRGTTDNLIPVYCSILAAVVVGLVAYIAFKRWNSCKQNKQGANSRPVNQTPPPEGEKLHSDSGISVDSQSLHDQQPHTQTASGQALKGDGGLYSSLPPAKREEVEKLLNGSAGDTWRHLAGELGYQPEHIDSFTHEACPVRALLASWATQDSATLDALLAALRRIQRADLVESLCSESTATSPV
Settings: lower affinity binding to more abundant p75

Kd: 1 nM
Substance: NGF: nerve growth factor, first identified member of the neurotrophin family; used as binding agent B
